Measured values as given in the Human Domainome abundance scans (Beltran et al. 2025).
± gives the uncertainty stated by the source.

B1: Zinc finger MYM-type protein 6, residues 427 to 504; numbered along this chain, O95789 (parent)
chain: KLKCQHCNHLFATKPELLFYKGKMFLFCGKNCSDEYKKKNKVVAMCDYCKLQKIIKETVRFSGVDKPFCSEVCKFLSA

Variants of: B1
Experiment: abundance fitness (aPCA) (normalised: wild type 0, dead -1); higher = more abundant; growth selection in yeast, the domain comes from the species named
Details: Homo sapiens

Point of comparison: KLKAQHCNHLFATKPELLFYKGKMFLFCGKNCSDEYKKKNKVVAMCDYCKLQKIIKETVRFSGVDKPFCSEVCKFLSA [C4A], abundance fitness -0.74 ± 0.04. Against it:
- KLKCQHCNHLFATKPELLFYHGKMFLFCGKNCSDEYKKKNKVVAMCDYCKLQKIIKETVRFSGVDKPFCSEVCKFLSA [K21H] — higher, -0.018 ± 0.049
- KLKCQHCNHLFATKPELLFYKGKMFLFCGKNCSDEYKKKNKVVAMCDYCLLQKIIKETVRFSGVDKPFCSEVCKFLSA [K50L] — within error, -0.722 ± 0.19
- KLKCQHCNHLFATKPELLFYKGKMFLFCGKNCSDEYKKKNKVVAMCDYCQLQKIIKETVRFSGVDKPFCSEVCKFLSA [K50Q] — higher, 0.164 ± 0.17
- KLKCQHCNHLFATKPELLFYKGKMFLFCGKNCSDEYKKKNKVVAMCDYCKLQKIIKETVRFSGVDKPFCSEVCKFLCA [S77C] — higher, -0.104 ± 0.22
- KLKCQHCNHLFATKPELLFYKGKMFLFCGKNCSDEYKKKNKVVAMCDYCKLQKIIKETVRFSGVDKPFCSEVCKFLEA [S77E] — within error, -0.615 ± 0.22
- KLKCQHCNHLFATKPELLFYKGKMFLFCGKNCSDEYKKKNKVVAMCDYCKLQKIIEETVRFSGVDKPFCSEVCKFLSA [K56E] — higher, -0.49 ± 0.15
- KLKCQHCNHLFATKPELLFYKGKMFLFCGKNCSDEHKKKNKVVAMCDYCKLQKIIKETVRFSGVDKPFCSEVCKFLSA [Y36H] — higher, -0.005 ± 0.076
- KLKCQHCNHLFATKPELLFYKGKMFLFCGKNCSDEGKKKNKVVAMCDYCKLQKIIKETVRFSGVDKPFCSEVCKFLSA [Y36G] — higher, -0.183 ± 0.029
- KLKCQHCNHAFATKPELLFYKGKMFLFCGKNCSDEYKKKNKVVAMCDYCKLQKIIKETVRFSGVDKPFCSEVCKFLSA [L10A] — higher, 0.051 ± 0.033
- KLKCQHCNHLFATKPELLFYKGKMFLFCGKNCSDEYKKKNKVLAMCDYCKLQKIIKETVRFSGVDKPFCSEVCKFLSA [V43L] — within error, -0.7 ± 0.33
- KLKCQHCNHLFATKPELLFYKGKMMLFCGKNCSDEYKKKNKVVAMCDYCKLQKIIKETVRFSGVDKPFCSEVCKFLSA [F25M] — higher, 0.048 ± 0.035
- KLKCQHCNHLFATKPELLFYKGKMSLFCGKNCSDEYKKKNKVVAMCDYCKLQKIIKETVRFSGVDKPFCSEVCKFLSA [F25S] — higher, -0.036 ± 0.038
- KLKCQHCNHLFATKPEFLFYKGKMFLFCGKNCSDEYKKKNKVVAMCDYCKLQKIIKETVRFSGVDKPFCSEVCKFLSA [L17F] — higher, -0.168 ± 0.083
- KLKCQHCNHLFATRPELLFYKGKMFLFCGKNCSDEYKKKNKVVAMCDYCKLQKIIKETVRFSGVDKPFCSEVCKFLSA [K14R] — higher, -0.104 ± 0.031
- KLKCQHCNHLFATKPELLFYKGKMFLFCGKNCSDEYKKKNKVVAMCDYCKLQKIIKETVRMSGVDKPFCSEVCKFLSA [F61M] — higher, 0.979 ± 0.1
- KLKCQHCNHLFATKPELLFYKGKMFLFCGKNCSDEYKKKNKVVAMCDYCKLQKIIKETVRFSGVDKPFLSEVCKFLSA [C69L] — within error, -0.954 ± 0.24
- KLQCQHCNHLFATKPELLFYKGKMFLFCGKNCSDEYKKKNKVVAMCDYCKLQKIIKETVRFSGVDKPFCSEVCKFLSA [K3Q] — higher, -0.032 ± 0.038
- KLKCQHCNHLFATKPELLFYKGKMFLFCGKNCSDEYKKKNKVVAMCDYCKLQKIIKETVRFSWVDKPFCSEVCKFLSA [G63W] — higher, -0.486 ± 0.18
- KLKCQLCNHLFATKPELLFYKGKMFLFCGKNCSDEYKKKNKVVAMCDYCKLQKIIKETVRFSGVDKPFCSEVCKFLSA [H6L] — higher, -0.104 ± 0.035
- KLKCQDCNHLFATKPELLFYKGKMFLFCGKNCSDEYKKKNKVVAMCDYCKLQKIIKETVRFSGVDKPFCSEVCKFLSA [H6D] — higher, -0.1 ± 0.083
- KLKCQHCNHLFATKPELLFYKGKMFLFCGKNCHDEYKKKNKVVAMCDYCKLQKIIKETVRFSGVDKPFCSEVCKFLSA [S33H] — higher, -0.192 ± 0.081
- KLKCQHCNHLFATKPELLFYKGKMFLFCGKNCSDEYKKKNKVVAMCHYCKLQKIIKETVRFSGVDKPFCSEVCKFLSA [D47H] — higher, 0.26 ± 0.23
- KLKCQHCNHLFATKPELLFYKGKMFSFCGKNCSDEYKKKNKVVAMCDYCKLQKIIKETVRFSGVDKPFCSEVCKFLSA [L26S] — higher, 0.054 ± 0.032
- KLKCQHCNHLFATKPELLFYKGKMFRFCGKNCSDEYKKKNKVVAMCDYCKLQKIIKETVRFSGVDKPFCSEVCKFLSA [L26R] — higher, 0.089 ± 0.029
- KLKCQHCNHLFATKPELLFYKGKMFLFCGKNCSDEYKKKNKVVAMCDWCKLQKIIKETVRFSGVDKPFCSEVCKFLSA [Y48W] — higher, -0.276 ± 0.11
- KLKCQHCNHLFATKPELLFYKGKMFLFCGKNCSDEYKKKNKVVAMCDYCKLQKIIKQTVRFSGVDKPFCSEVCKFLSA [E57Q] — higher, -0.289 ± 0.38
- KLKCQHCNHLFATKPELPFYKGKMFLFCGKNCSDEYKKKNKVVAMCDYCKLQKIIKETVRFSGVDKPFCSEVCKFLSA [L18P] — higher, -0.307 ± 0.039
- KLKCQHCNHLFATKPELCFYKGKMFLFCGKNCSDEYKKKNKVVAMCDYCKLQKIIKETVRFSGVDKPFCSEVCKFLSA [L18C] — higher, -0.113 ± 0.13
- KLKCQHCNHLFATKPELLFYKGKMFLFCGCNCSDEYKKKNKVVAMCDYCKLQKIIKETVRFSGVDKPFCSEVCKFLSA [K30C] — higher, -0.24 ± 0.059
- KLKCQHCNHLFATKPELLFYKGKMFLFCGQNCSDEYKKKNKVVAMCDYCKLQKIIKETVRFSGVDKPFCSEVCKFLSA [K30Q] — higher, -0.096 ± 0.055
- KLKCQHCNHLFATKPELLFYKGKMFLFCGLNCSDEYKKKNKVVAMCDYCKLQKIIKETVRFSGVDKPFCSEVCKFLSA [K30L] — higher, -0.061 ± 0.034
- KLKCQHCNHLFATKPELLFYKGKMFLFCGPNCSDEYKKKNKVVAMCDYCKLQKIIKETVRFSGVDKPFCSEVCKFLSA [K30P] — higher, -0.107 ± 0.035
- KLKCQHCNHLFATKPELLFYKGKMFLFCGKNCSDEYKKKNKVVAMCDYCKIQKIIKETVRFSGVDKPFCSEVCKFLSA [L51I] — higher, 0.022 ± 0.32
- KLKCQHCNHLFATKPELLFYKGKMFLFCGKNCSDEYKKKNKVVAMCDYCKMQKIIKETVRFSGVDKPFCSEVCKFLSA [L51M] — higher, 0.805 ± 0.092
